{
  "source": "IntAct's records for PubMed 29892012",
  "parents": {"B1": {"name": "Ligand of Numb protein X 2 (Homo sapiens), Q8N448 (parent)", "chain": "MGTTSDEMVSVEQTSSSSLNPLCFECGQQHWTRENHLYNYQNEVDDDLVCHICLQPLLQPLDTPCGHTFCYKCLRNFLQEKDFCPLDRKRLHFKLCKKSSILVHKLLDKLLVLCPFSSVCKDVMQRCDLEAHLKNRCPGASHRRVALERRKTSRTQAEIENENGPTLLDPAGTLSPEADCLGTGAVPVERHLTSASLSTWSEEPGLDNPAFEESAGADTTQQPLSLPEGEITTIEIHRSNPYIQLGISIVGGNETPLINIVIQEVYRDGVIARDGRLLAGDQILQVNNYNISNVSHNYARAVLSQPCNTLHLTVLRERRFGNRAHNHSDSNSPREEIFQVALHKRDSGEQLGIKLVRRTDEPGVFILDLLEGGLAAQDGRLSSNDRVLAINGHDLKYGTPELAAQIIQASGERVNLTIARPGKPQPGNTIREAGNHSSSSQHHTPPPYYSRPSSHKDLTQCVTCQEKHITVKKEPHESLGMTVAGGRGSKSGELPIFVTSVPPHGCLARDGRIKRGDVLLNINGIDLTNLSHSEAVAMLKASAASPAVALKALEVQIVEEATQNAEEQPSTFSENEYDASWSPSWVMWLGLPSTLHSCHDIVLRRSYLGSWGFSIVGGYEENHTNQPFFIKTIVLGTPAYYDGRLKCGDMIVAVNGLSTVGMSHSALVPMLKEQRNKVTLTVICWPGSLV", "partner": "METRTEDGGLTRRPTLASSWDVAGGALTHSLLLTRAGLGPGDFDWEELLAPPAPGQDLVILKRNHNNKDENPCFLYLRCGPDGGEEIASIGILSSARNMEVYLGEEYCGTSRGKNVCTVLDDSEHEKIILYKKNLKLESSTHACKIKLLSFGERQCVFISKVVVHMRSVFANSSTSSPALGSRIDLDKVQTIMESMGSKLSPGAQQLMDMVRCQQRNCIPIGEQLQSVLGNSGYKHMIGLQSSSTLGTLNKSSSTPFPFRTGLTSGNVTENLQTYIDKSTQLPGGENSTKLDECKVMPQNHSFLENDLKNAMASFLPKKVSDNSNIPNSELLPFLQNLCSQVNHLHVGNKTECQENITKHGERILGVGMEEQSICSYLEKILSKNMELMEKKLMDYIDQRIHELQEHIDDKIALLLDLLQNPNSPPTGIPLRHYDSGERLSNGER"}, "B2": {"name": "Glutaredoxin-3 (Homo sapiens), O76003 (parent)", "chain": "MAAGAAEAAVAAVEEVGSAGQFEELLRLKAKSLLVVHFWAPWAPQCAQMNEVMAELAKELPQVSFVKLEAEGVPEVSEKYEISSVPTFLFFKNSQKIDRLDGAHAPELTKKVQRHASSGSFLPSANEHLKEDLNLRLKKLTHAAPCMLFMKGTPQEPRCGFSKQMVEILHKHNIQFSSFDIFSDEEVRQGLKAYSSWPTYPQLYVSGELIGGLDIIKELEASEELDTICPKAPKLEERLKVLTNKASVMLFMKGNKQEAKCGFSKQILEILNSTGVEYETFDILEDEEVRQGLKAYSNWPTYPQLYVKGELVGGLDIVKELKENGELLPILRGEN", "partner": "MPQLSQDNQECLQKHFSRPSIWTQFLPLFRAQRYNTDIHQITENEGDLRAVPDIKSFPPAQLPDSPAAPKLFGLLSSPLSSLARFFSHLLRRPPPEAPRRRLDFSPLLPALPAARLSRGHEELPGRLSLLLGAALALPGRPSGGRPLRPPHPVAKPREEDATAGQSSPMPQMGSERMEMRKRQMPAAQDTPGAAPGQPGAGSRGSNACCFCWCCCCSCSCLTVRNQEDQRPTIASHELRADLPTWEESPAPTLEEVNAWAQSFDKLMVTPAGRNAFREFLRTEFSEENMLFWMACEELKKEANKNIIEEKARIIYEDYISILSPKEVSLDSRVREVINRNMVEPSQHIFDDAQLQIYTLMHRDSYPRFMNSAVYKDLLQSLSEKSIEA"}, "B3": {"name": "Ligand of Numb protein X 2 (Homo sapiens), Q8N448 (parent)", "chain": "B1 chain", "partner": "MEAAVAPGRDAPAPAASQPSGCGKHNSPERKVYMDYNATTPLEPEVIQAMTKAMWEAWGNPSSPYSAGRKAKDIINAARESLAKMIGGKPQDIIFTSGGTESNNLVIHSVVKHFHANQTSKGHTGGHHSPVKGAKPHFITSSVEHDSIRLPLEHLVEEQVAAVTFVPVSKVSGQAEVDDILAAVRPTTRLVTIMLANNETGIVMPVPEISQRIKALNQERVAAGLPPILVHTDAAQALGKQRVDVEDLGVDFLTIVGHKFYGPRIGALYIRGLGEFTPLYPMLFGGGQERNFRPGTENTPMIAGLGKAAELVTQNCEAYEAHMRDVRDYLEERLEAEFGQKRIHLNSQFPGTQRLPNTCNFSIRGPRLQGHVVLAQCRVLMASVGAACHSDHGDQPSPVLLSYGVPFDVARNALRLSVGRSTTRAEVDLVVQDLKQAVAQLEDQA"}, "B4": {"name": "Atos homolog protein B (Homo sapiens), Q7L5A3 (parent)", "chain": "MRHVQAEPSPSSEPEAGPSQPPVRQGALQGGLLMGYSPAGGATSPGVYQVSIFSPPAGTSEPHRALKRQAPSTEGPRELKRGPGLGAREGLPPEEPSTVGLLGPEGPGLGLGVASQHFSHRGLCVVEQRSSVTSSWTSGAWSPPCPPSNASCNTLHTRDWASPDPGGQGSLGESPGPAPPGQLHTLDTDLHSLAQIGGKSPVAGVGNGGSLWPRESPGTANGHSPEHTPPGPGPPGPCPTKRRLLPAGEAPDVSSEEEGPAPRRRRGSLGHPTAANSSDAKATPFWSHLLPGPKEPVLDPTDCGPMGRRLKGARRLKLSPLRSLRKGPGLLSPPSASPVPTPAVSRTLLGNFEESLLRGRFAPSGHIEGFTAEIGASGSYCPQHVTLPVTVTFFDVSEQNAPAPFLGIVDLNPLGRKGYSVPKVGTVQVTLFNPNQTVVKMFLVTFDFSDMPAAHMTFLRHRLFLVPVGEEGNANPTHRLLCYLLHLRFRSSRSGRLSLHGDIRLLFSRRSLELDTGLPYELQAVTEAPHNPRYSPLP", "partner": "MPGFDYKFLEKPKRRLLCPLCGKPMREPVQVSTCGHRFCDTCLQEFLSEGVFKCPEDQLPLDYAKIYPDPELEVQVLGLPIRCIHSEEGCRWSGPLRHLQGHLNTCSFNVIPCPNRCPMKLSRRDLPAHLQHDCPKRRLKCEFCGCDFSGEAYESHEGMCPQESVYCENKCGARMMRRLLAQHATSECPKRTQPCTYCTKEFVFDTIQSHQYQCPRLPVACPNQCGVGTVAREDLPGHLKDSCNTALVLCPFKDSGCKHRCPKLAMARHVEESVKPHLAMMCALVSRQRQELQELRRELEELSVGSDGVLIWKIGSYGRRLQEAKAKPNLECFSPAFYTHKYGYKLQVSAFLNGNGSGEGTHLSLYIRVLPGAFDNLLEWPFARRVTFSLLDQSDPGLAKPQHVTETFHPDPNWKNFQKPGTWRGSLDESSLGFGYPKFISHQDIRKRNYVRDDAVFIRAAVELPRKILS"}, "B5": {"name": "PDZ and LIM domain protein 1 (Homo sapiens), O00151 (parent)", "chain": "MTTQQIDLQGPGPWGFRLVGGKDFEQPLAISRVTPGSKAALANLCIGDVITAIDGENTSNMTHLEAQNRIKGCTDNLTLTVARSEHKVWSPLVTEEGKRHPYKMNLASEPQEVLHIGSAHNRSAMPFTASPASSTTARVITNQYNNPAGLYSSENISNFNNALESKTAASGVEANSRPLDHAQPPSSLVIDKESEVYKMLQEKQELNEPPKQSTSFLVLQEILESEEKGDPNKPSGFRSVKAPVTKVAASIGNAQKLPMCDKCGTGIVGVFVKLRDRHRHPECYVCTDCGTNLKQKGHFFVEDQIYCEKHARERVTPPEGYEVVTVFPK"}},
  "data": [
    {"variants_of": "B1", "conditions": "with paat_human PAAT", "values": [
      {"variant": "P669A", "effect of a mutation on the interaction": "with no effect"}
    ]},
    {"variants_of": "B2", "conditions": "with rgs20_human RGS20, O76081", "values": [
      {"variant": "P145A", "effect of a mutation on the interaction": "with no effect"}
    ]},
    {"variants_of": "B3", "conditions": "with scly_human SCLY", "values": [
      {"variant": "P669A", "effect of a mutation on the interaction": "with no effect"}
    ]},
    {"variants_of": "B4", "conditions": "with traf4_human TRAF4, Q9BUZ4", "values": [
      {"variant": "C381Y", "effect of a mutation on the interaction": "disrupting interaction strength"}
    ]},
    {"variants_of": "B5", "conditions": "with gfap_human GFAP", "values": [
      {"variant": "A249V", "effect of a mutation on the interaction": "with no effect"}
    ]},
    {"variants_of": "B5", "conditions": "with actn4_human ACTN4, O43707", "values": [
      {"variant": "A249V", "effect of a mutation on the interaction": "with no effect"}
    ]}
  ]
}
